Publication PMC10627512

Target: HipB of the E. coli O127:H6 HipBST toxin-antitoxin system (E. coli O127:H6) (UniProt P23873)
Experiment: crystal structure

Substance: HipB of the E. coli O127:H6 HipBST toxin-antitoxin system (from UniProt P23873 1-88) (natural protein)
- stoichiometry N: 2
